Where no end group is shown, it is not given here. The star is where a group is joined. 5FAM = O=C1OC2(c3ccc(O)cc3Oc3cc(O)ccc32)c2ccc(C(=O)*)cc21; Ahx = NCCCCCC(=O)O
Key:
[1] = target: T1, 6xHis-SUMO-TRAF2 (residues 315-501) (human, UniProt Q12933 315-501); experiment: fluorescence polarisation; details: both partners purified
T1 construct: also called SUMO-TRAF-C of TRAF2; TRAF2 TRAF-C domain
T1 sequence (looked up): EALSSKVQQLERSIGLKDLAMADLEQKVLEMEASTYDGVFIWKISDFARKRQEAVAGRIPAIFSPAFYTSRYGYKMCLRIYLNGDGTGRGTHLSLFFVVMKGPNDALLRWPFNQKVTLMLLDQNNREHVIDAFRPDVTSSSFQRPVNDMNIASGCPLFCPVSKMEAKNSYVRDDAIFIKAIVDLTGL

[2] = target: T2, 6xHis-SUMO-TRAF3 (residues 341-568) (human, UniProt Q13114 341-568); experiment: fluorescence polarisation; details: both partners purified
T2 construct: also called SUMO-TRAF-C of TRAF3; TRAF3 TRAF-C domain
T2 sequence (looked up): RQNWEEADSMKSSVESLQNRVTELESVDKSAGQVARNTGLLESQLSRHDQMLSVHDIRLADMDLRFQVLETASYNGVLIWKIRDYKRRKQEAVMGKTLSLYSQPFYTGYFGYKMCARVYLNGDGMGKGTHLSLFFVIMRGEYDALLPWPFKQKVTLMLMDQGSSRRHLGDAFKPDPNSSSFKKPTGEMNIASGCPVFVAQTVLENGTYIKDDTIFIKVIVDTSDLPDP

[3] = target: 16-aa ORF3a peptide (SARS-CoV-2 ORF3a residues 30-45) (SARS-CoV-2); experiment: crystal structure; details: both partners purified
[4] = target: the molecule itself; experiment: crystal structure

B1: 5-FAM-Ahx-PIQAS peptide (5-aa ORF3a peptide, residues 36-40) (peptide)
peptide: {5FAM-Ahx}-PIQAS
notes: also called 5-FAM-ORF3a peptide; fluorescently labeled PIQAS peptide
Kd [1]: 192 µM
Kd [2]: 172 µM

B2: TRAF2 TRAF-C domain (human TRAF2 residues 315-501), tag cleaved, for crystallization (domain or fragment, UniProt Q12933 315-501, looked up)
chain: EALSSKVQQLERSIGLKDLAMADLEQKVLEMEASTYDGVFIWKISDFARKRQEAVAGRIPAIFSPAFYTSRYGYKMCLRIYLNGDGTGRGTHLSLFFVVMKGPNDALLRWPFNQKVTLMLLDQNNREHVIDAFRPDVTSSSFQRPVNDMNIASGCPLFCPVSKMEAKNSYVRDDAIFIKAIVDLTGL
binding result [3]: binds
stoichiometry N [4]: 3
